We go through eight molecules from PMC9126983, “Structural insights into the mechanism of archaellar rotational switching” (Nature Communications, 2022).

B2: GST-MmCheFCTD (domain or fragment)
chain: IKSLLPKSEDDLDSEMAVESWSGDKLKNEVEQLAPEEQEILTAIYTGITSLELPGMMGMDIDEVEKVLEKLIDQGFLDLVRIRKETDLTEKGRAVTNFIITNF
B3: Methanococcus maripaludis CheY, activated with BeF3- (phosphorylated state mimicked) (natural protein, UniProt Q6LYQ5 1-123, looked up)
chain: MASIVKTMIVDDSAFMRNILKRILSTTNKYVVIGEAANGADAIKMAEELQPDLISMDIVMPETDGITATKAIKEKTPEIKIVMCTSVDQEQKMIDAVNAGADGYIVKPFQAPKILEQFNKLFP
modifications: BeF3- phosphomimic (2 mM BeF2 and 20 mM NaF in the buffer); phosphorylation site D57
notes: CheY of Methanococcus maripaludis; The same protein as m10, in buffer with 2 mM BeF2, 20 mM NaF and 20 mM MgCl2; also called CheY-P; source: E. coli BL21 (DE3), purified (Ni-NTA, SEC)

The target in one test is FliM FliMN peptide (UniProt P06974). The following applies: cited from earlier work.
Test [1] deals with FliM 1-249 (Thermotoga maritima) (UniProt Q9WZE6). The following applies: cited from earlier work.
Test [2] deals with Methanococcus maripaludis CheF (Methanococcus maripaludis). As to the kind of experiment: mass photometry; OneMP mass photometer; protein stocks diluted in HEPES buffer; typical working concentrations of MmCheF 25–50 nM.
Test [3] addresses Pyrococcus horikoshii CheF (Pyrococcus horikoshii). The test is described as above.
Test [4] addresses Thermococcus kodakarensis CheF (Thermococcus kodakarensis). The description is as above.
Test [5] has as its target B2. The description is as above. The following applies: both partners purified.
Test [6] deals with B3. As to the kind of experiment: ITC; GST-MmCheFCTD (25 µM) in the sample cell, titrated with MmCheY; 25 °C; 20 mM HEPES-Na pH 7.5, 200 mM NaCl, 20 mM KCl, 20 mM MgCl2, 20 mM NaF, 2 mM BeF2. As to conditions: both partners purified.
In test [7] the target is B2. The test is described as above. As to conditions: both partners purified.

Where “and” joins values, the source holds several entries; their conditions need not be identical. Identical values can stand only once.

Sequence of FliM 1-249 (Thermotoga maritima) (Q9WZE6 1-249): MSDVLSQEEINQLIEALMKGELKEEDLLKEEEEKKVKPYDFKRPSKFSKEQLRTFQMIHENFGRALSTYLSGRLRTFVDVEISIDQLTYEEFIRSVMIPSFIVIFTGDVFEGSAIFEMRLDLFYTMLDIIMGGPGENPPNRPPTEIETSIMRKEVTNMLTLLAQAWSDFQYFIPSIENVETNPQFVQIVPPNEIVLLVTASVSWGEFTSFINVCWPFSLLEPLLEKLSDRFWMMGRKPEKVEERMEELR

On to CheY (from UniProt P0AE67), for which, in the test with FliM FliMN peptide, the Kd (commonly the constant that tells how readily two partners part at equilibrium) was 27 µM.
Regarding CheY (from UniProt Q56312), the Kd in test [1] is 0.039 µM.
In the case of “Methanococcus maripaludis CheF (natural protein)”, the stoichiometry N (commonly a count of units in the complex or per binding partner) in test [2] stood at 2.
In test [3], “Pyrococcus horikoshii CheF (natural protein)” yielded a percent of observations in the dimer species of 89% and a stoichiometry N of 2.
Regarding “Thermococcus kodakarensis CheF (natural protein)”, the stoichiometry N in test [4] worked out at 2.

B1: GST-MmCheFCTD (domain or fragment)
chain: IKSLLPKSEDDLDSEMAVESWSGDKLKNEVEQLAPEEQEILTAIYTGITSLELPGMMGMDIDEVEKVLEKLIDQGFLDLVRIRKETDLTEKGRAVTNFIITNF
modifications: GST carrier left out; limits taken as the C-terminal 103 residues (246-348, F348 terminal) used in the CheY:CheFCTD fusion, exact limits are in Fig. S3a; fusion is mainly a dimer by mass photometry /
For the molecule B1, the “stoichiometry N” value with GST-MmCheFCTD [5] is 2 and 4.
Regarding B2, binding in test [6] was put at a Kd of 1.24 ± 0.414 µM.
Regarding B3, the “stoichiometry N” value with GST-MmCheFCTD [7] stood at 1.
